To fix the notation:
B1: library; numbered along this chain (parent)
chain: MRKPRAAVGSGHRKQAASQEGRQKHAKNNSQAKPSACDGLARQPEEVVLQASVSSYHLFRDVAEVTAFRGSLLSWYDQEKRDLPWRRRAEDEMDLDRRAYAVWVSEVMLQQTQVATVINYYTGWMQKWPTLQDLASASLEEVNQLWAGLGYYSRGRRLQEGARKVVEELGGHMPRTAETLQQLLPGVGRYTAGAIASIAFGQATGVVDGNVARVLCRVRAIGADPSSTLVSQQLWGLAQQLVDPARPGDFNQAAMELGATVCTPQRPLCSQCPVESLCRARQRVEQEQLLASGSLSGSPDVEECAPNTGQCHLCLPPSEPWDQTLGVVNFPRKASRKPPREESSATCVLEQPGALGAQILLVQRPNSGLLAGLWEFPSVTWEPSEQLQRKALLQELQRWAGPLPATHLRHLGEVVHTFSHIKLTYQVYGLALEGQTPVTTVPPGARWLTQEEFHTAAVSTAMKKVFRVYQGQQPGTCMGSKRSQVSSPCSRKKPRMGQQVLDNFFRSHISTDAHSLNSAAQ

This series covers variants of B1. The experiment in a line: 8OG:A repair function score (normalized; synonymous = 0, nonsense = -1) (normalized log-likelihood score); higher = more repair activity (WT-like). The conditions noted are these: with 8OG:A DNA repair reporter (GFP) in HEK-293 MUTYH KO cells. The method, then:
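Saturation mutagenesis (NNN codon scan) of the MUTYH cDNA (521-aa nuclear isoform NM_001048174.1 / NP_001041639), stably expressed under doxycycline induction in HEK-293 MUTYH knockout cells. Cells were co-transfected with an 8OG:A-bearing GFP repair reporter plus mCherry and sorted 72 h later into GFP+ and GFP− bins, three replicates per tile. The Rosace log2 enrichment (GFP+ vs GFP−) was converted per tile to a normalized function score with synonymous variants centered at 0 and nonsense variants (codons 1-471) at -1; low-abundance variants were removed.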
Take L215R: the “8OG:A repair function score” value was -1.02.
With G497Y, the “8OG:A repair function score” value is -0.0861.
Next, G497F: -0.0315.
The result for Q323P reads -0.0158.
Next, Q323F: -0.0491; K493I: -0.0174.
Take N251W: the “8OG:A repair function score” value was -0.879.
Next, G201V: -0.331.
Next, G201N: 0.0301; V500D: -0.00453; V500R: 0.00797.
Next, S318C: -0.0155; L315T: -0.0895; A147D: -0.118.
Turning to E141I, the “8OG:A repair function score” value is -0.599.
M173D: the “8OG:A repair function score” value was -0.926.
The result for S55Q reads 0.00445; that for H416C, -0.483.
Next, P402Y: -0.122; F418H: -0.4; A177E: -0.368.
The result for A177Y reads -0.194; that for P244D, -0.291.
On to Y152N, for which the “8OG:A repair function score” value is -0.779.
On to Q394V, for which the “8OG:A repair function score” value was -0.209.
On to A36E, for which the “8OG:A repair function score” value came out at 0.00159.
Next, G434F: 0.125; K127W: -0.529; V211D: -0.988.
The result for M255L reads -0.962.
Regarding K464V, the “8OG:A repair function score” value is -0.276.
The result for W75T reads -3.63; that for W75Q, -1.46.
In the case of V102Y, the “8OG:A repair function score” value was -1.01.
The result for P339W reads -0.126; that for P339Y, -0.144.
The result for Q358P reads 0.069; that for D82M, -0.077.
For the variant A461W, the “8OG:A repair function score” value is -1.22.
As to W321P, the “8OG:A repair function score” value is -0.252.
Next, R60D: -0.0771; R336L: -0.22.
Next, Q113S: -0.0696; T112N: -0.879.
Take T179M: the “8OG:A repair function score” value was 0.0538.
In the case of R482W, the “8OG:A repair function score” value worked out at 0.0248.
Next, Y76V: -1.41; K80N: -0.162.
Regarding K80V, the “8OG:A repair function score” value is -0.423.
The result for V468L reads -0.00361.
Take Y428Q: the “8OG:A repair function score” value was -1.2.
Take D77S: the “8OG:A repair function score” value was -0.0758.
Take D77T: the “8OG:A repair function score” value is -0.0415.
As to D77E, the “8OG:A repair function score” value was -0.0615.
The result for D77V reads -0.0835.
On to S344L, for which the “8OG:A repair function score” value was found to be 0.00107.
The result for E79T reads 0.00587; that for C477M, 0.00893; that for C477D, 0.016.
The result for V348I reads -0.0535; that for V348T, -0.732.
Next, L448T: -0.164; R283W: -0.115.
Turning to R157K, the “8OG:A repair function score” value was -0.0295.
Next, W235F: -0.292; Q111S: -0.201.
The result for P383K reads -0.1; that for S105A, -0.0215; that for Q239N, 0.162.
The result for V328N reads -0.0823; that for V242Y, -0.964.
For G123P, the “8OG:A repair function score” value was 0.0736.
Next, S483P: 0.0199; Y190G: -0.381; C304G: -0.343.
The result for C304W reads -0.296; that for C304N, -0.439.
Next, R87E: -0.0603; R87Q: -0.219.
For the variant R87T, the “8OG:A repair function score” value is -0.0213.
As for A334Q, the “8OG:A repair function score” value is -0.103.
The result for G309N reads -0.0326; that for G309C, -0.165.

Values taken from the supplement of paper PMC11908140.
